Assay results reported in the RNAGym collection of RNA variant scans (doi:10.1073/pnas.2313332121).
Fewer inactive variants are shown than the library holds.

B1: TPR 5TU (parent)
chain: GGAUCUUCUCGAUCUAACAAAAAAGACAAAUCUGCCACAAAGCUUGAGAGCAUCUUCGGAUGCAGAGGCGGCAGCCUUCGGUGGCGCGAUAGCGCCAACGUUCUCAACUAUGACACGCAAAACGCGUGCUCCGUUGAAUGGAGUUUAUCAUG

Variants of: B1
Test: polymerase ribozyme fitness, log enrichment relative to wild type (log ratio); higher = more active; in vitro selection for triplet polymerase activity
In short: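 In triplicate, a single round of in vitro selection was run on each mutant library, PCR-built and transcribed, covering one subunit of a heterodimeric triplet polymerase ribozyme. Frozen incubation at −7 °C followed annealing with a biotinylated primer, partner subunit and triplets, and extended constructs were then gel-excised, streptavidin-captured and taken through RT-PCR. Fitness is the logarithm of genotype enrichment over wild-type enrichment, from inverse-variance-weighted replicate averages of Illumina-sequenced inputs and outputs. […] only genotypes with ≥10 input reads and ≥1 read per output were kept.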

Variant | polymerase ribozyme fitness (log ratio)
U45A U56A G65C A91U G92A U130C A147U | ≤ -4.2
C43U C116G | -3.65
G46A C93U C129G | ≤ -4.2
U44A C103G A115U | ≤ -4.2
A47C C69G G83A A119G U146C | -2.18
C43U G58A G86A U90G U144A | ≤ -4.2
A47G G81C | 0.162
G46A G94C | -1.05
A47C G50A | -1.47
U45G A49C G62C G94C C118G | ≤ -4.2
A47C C51U A52C C75A C96U C103A A110C | ≤ -4.2
U44A A49C C54G C57U G58C C95G C96U | ≤ -4.2
G46A G50C U55A U56A C87U G88U C125A G136A | ≤ -4.2
A47G A49C U104G | ≤ -4.2
U44A A60G G67A G92U C105A | ≤ -4.2
U44A C85A C96G | ≤ -4.2
A47G G65C A106G A120G | -4.14
A47G U145G | -0.0566
A47C G80A C95U U104G A120G | -0.454
A47C A89G A97U C131G | ≤ -4.2
U45A A60G A66C G68C C69U | ≤ -4.2

Variant | polymerase ribozyme fitness (log ratio)
A47U A64G C93A | ≤ -4.2
A47C G50U G59A G70A C79U U82G C95U G124A U144G | ≤ -4.2
A47C G83A | -2.37
G46U U144C | -0.573
A47G C85A C93A A98C A121U | -4.11
G46C C85G G88A C118U U144G | ≤ -4.2
G46A A49C G59C U61A G86U | ≤ -4.2
A47C U82G A110G | -3.62
A47C G83A G92U C108U | ≤ -4.2
U45A C87U | -3.28
A47G G88A C96U A120G G143A | ≤ -4.2
U45C C57A G74C G80U U101A U139A G143C | ≤ -4.2
G48A G81U G92U C118A G152C | ≤ -4.2
G46U G50C A73G C76G A113U U139C | ≤ -4.2
G46A G88U C132U | ≤ -4.2
A47C G117A | 0.357
U44C A98G | -3.97
A47C C85A | -2.92
G46C A47U U53A C85U U130C A150G | ≤ -4.2
A47C G58U G92U A97U | -1.96
A47C G48U C75U U77A G83C C96A C99A | ≤ -4.2

Variant | polymerase ribozyme fitness (log ratio)
A47G G48A G70A U77G C95U C108G A122U | ≤ -4.2
U45G A49C C63G G84A G141C | ≤ -4.2
A47G G59C G62U G83A C87U U101G A138U | ≤ -4.2
A47U G71C G83A C118U | ≤ -4.2
A47C A115C U144G | -0.866
A47C U56A | -0.282
U45A C87U C132G U139C G143A U145G | ≤ -4.2
U45A G48C G50C U53A U56A U61G C105G A119G G136U | ≤ -4.2
U45A U61A | -4.16
U44C U61C A64G C85U C87G C95A C96G C99A G136A | ≤ -4.2
G48A C79U | -3.91
U44A U82C C85A | ≤ -4.2
G46C G68A | -4.14
A47U A64G A138C U144C | ≤ -4.2
A47G G94U A147G | ≤ -4.2
G46C C69A G81A | -1.82
A47U G68A U82A A97G | ≤ -4.2
G48A C54U G84A G92U C99G U109G G133C | ≤ -4.2
G46A C75U C85A A106G | ≤ -4.2
C43U C99G | ≤ -4.2
U45A G48U G50C C85A C87A C95A U145C | ≤ -4.2

Variant | polymerase ribozyme fitness (log ratio)
U44A C85G U109G U146C | ≤ -4.2
A47U U82G G84A A97G U102G G136C | ≤ -4.2
U45C U56A A64C G74A G94C C114U A115U | ≤ -4.2
U45A A49U C75A G83C C87G G117U U127A U139A G152U | ≤ -4.2
A47G G152U | -2.47
A47C A52G U53A G86A G94C | ≤ -4.2
A47C A91C C105G A120G G143U | ≤ -4.2
U44A G50U C75G C79U C87A C125U | ≤ -4.2
U45A A52U C85A U139G | ≤ -4.2
A47G G59A C103A C131U U134C | -2.12
U44C | -1.11
U44G | -3.7
U44A | -3.72
A47C G88U | -3.96
G48A C85A | -2.56
G48A C85U | -2.1
A47G A49G G71A C87U A97U A106G A107C U111G U134C | ≤ -4.2
A47G A73U | -1.81
G46A U56A G83U | -2.27
U45A C118A | -3.79
